Residue numbers refer to the chain shown, from its start. Names may count otherwise. One block for each binder: values may come before it.
Biological target: Human TNF-α (R&D Systems) (human, UniProt P01375 77-233, labeled with Alexa Fluor 647 in the FACS assays)
Experiment: Biacore

Chain of Human TNF-α (R&D Systems) (P01375 77-233): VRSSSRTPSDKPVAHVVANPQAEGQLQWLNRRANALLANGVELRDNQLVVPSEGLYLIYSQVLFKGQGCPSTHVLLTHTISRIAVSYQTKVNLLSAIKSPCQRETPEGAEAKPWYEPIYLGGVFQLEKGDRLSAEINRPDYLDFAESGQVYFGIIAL

Kd: 149 pM
B1: D2E7 combination variant Y32K/SS-R30I (antibody, V domains shown)
VH: not shown
VL: DIQMTQSPSSLSASVGDRVTITCRASQSIINYLSWYQQKPGKAPKLLIYAASTLQSGVPSRFSGSGSGTDFTLTISSLQPEDVATYYCQRYNRAPYTFGQGTKVEIK

Kd: 130 pM
B2: D2E7 combination variant Y32K/SS-R30T (antibody, V domains shown)
VH: not shown
VL: B1 VL with I30T

Reference: patent US20140227251A1 (published 2014)
